± gives the standard deviation.
Assay: protein stability index of a GFP-peptide fusion (GPS, HEK-293T) (PSI 1-6); higher = more stable
Settings: c terminus: a fixed tail appended
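Also: 24-mer peptide tiles fused after GFP, lentivirally expressed, FACS-sorted into six equal bins by GFP/DsRed ratio, decoded by Illumina sequencing, PSI is the read-weighted mean bin number.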

Row | Sequence | protein stability index (treatment: DMSO) | protein stability index (treatment: MLN4924 1 uM, 8 h)
1 | QPPPQSSEGLVGALMHVMQKRSRA [WAS] | 4.21 ± 0.41 | 4.24 ± 0.12
2 | LEGSHDTANCEACTLGICGQGLKS [RTP4] | 5.13 ± 0.25 | 5.11 ± 0.12
3 | RDQGSSALSGVGGIRLPNGKLKCD [IKZF1] | 4.66 ± 0.33 | 4.68 ± 0.32
4 | ASLGLTQTQVKIWFQNKRSKFKKL [DLX1] | 2.37 ± 0.19 | 2.61 ± 0.47
5 | QNPKDCSKAKKLVCNINKGCGYGC [FUT8] | 3.53 ± 0.1 | 3.48 ± 0.17
6 | FTRPNEKGEYEVAEGIGSTVFRAI [BTBD10] | 3.18 ± 0.42 | 3.46 ± 0.38
7 | NICENTEGAIAVHCKAGLGRTGTL [CDC14A] | 3.13 ± 0.22 | 3.21 ± 0.3
8 | ASDLSSEEGWRLFKIDKEYLLKMA [SAT1] | 2.42 ± 0.17 | 2.6 ± 0.33
9 | TLRGTGATADFADVADDFENYHKL [NETO1] | 4.4 ± 0.22 | 4.49 ± 0.084
10 | EGATLLLRGLCANTVLRFLDLKGN [LRRC45] | 2.6 ± 0.4 | 2.98 ± 0.77
11 | STNLGVNQAGFTLHSAIYAARPDV [ADD1] | 3.02 ± 0.18 | 3.08 ± 0.35
12 | IVEDPQTKCEYMLNSMPKRLCLVC [ESRRG] | 2.39 ± 0.46 | 2.05 ± 0.24
13 | FFINEAMELKVGDFGLAARLEPLE [PLK2] | 2.61 ± 0.14 | 2.68 ± 0.18
14 | LEASNYQMMPYMQPVMQSDRTAIR [KLHL13] | 3.9 ± 0.38 | 4.17 ± 0.25
15 | WGLDQEQVFSLGDGVSGGFFGIRD [ZBED1] | 2.91 ± 0.6 | 3.17 ± 0.3
16 | SKNGNGLKNTPRFKRRRVRRRRME [PCMTD2] | 4.6 ± 0.2 | 4.58 ± 0.32
17 | ISAEGFTDIDIDTLCAVLERDTLS [BTBD1] | 2.48 ± 0.3 | 2.63 ± 0.38
18 | MEHLIYGEPRKLLTQDWVQENYLE [MAGEA10] | 3.41 ± 0.35 | 3.47 ± 0.3
19 | RFHGRLLFLKDVLGDEICCWSFYG [KCTD13] | 2.49 ± 0.38 | 2.56 ± 0.71
20 | LQCRSPPRLHGAKAILDAEPGPRP [TBC1D10A] | 4.46 ± 0.12 | 4.48 ± 0.12
21 | MAGGPPNTKAEMEMSLAEELNHGR [FATE1] | 5.17 ± 0.14 | 5.22 ± 0.27
22 | PLPPPPPAFKSMEVANFYYEADCL [CEBPB] | 3.9 ± 0.31 | 3.62 ± 0.33

Row | Sequence | protein stability index (treatment: DMSO) | protein stability index (treatment: MLN4924 1 uM, 8 h)
23 | TGGLLPIKRTIRVLDVNNQSFREQ [NET1] | 2.92 ± 0.13 | 3.03 ± 0.24
24 | YSLGGVRSLNVASGSGKSGGYGFG [KRT71] | 2.72 ± 0.34 | 3.29 ± 0.49
25 | SFRAGSKGLSGGFGSRSLYSLGGV [KRT71] | 2.12 ± 0.21 | 2.77 ± 0.33
26 | GPPPAQGSPGDGGLQDQVGAWGLP [EMID1] | 5.02 ± 0.12 | 5.03 ± 0.4
27 | IRLYGLQAGRLLWEQELYSQLVYS [WAS] | 3.11 ± 0.55 | 2.7 ± 0.38
28 | PIYGLRQSILLNTRLQDCYVDSPA [C22orf31] | 2.69 ± 0.2 | 2.55 ± 0.38
29 | KLSPLRLSVSNNQEPDFIDDIEEK [KMT2E] | 4.9 ± 0.24 | 5.06 ± 0.12
30 | TSTSSSITSSIPDTERLDDFHLSI [DVL3] | 3.84 ± 0.27 | 3.96 ± 0.23
31 | RLEDKVKTLKAENAGLSSTAGLLR [JUNB] | 3.7 ± 0.22 | 3.97 ± 0.3
32 | TGEKPHTCSECGKGFIQKGNLNIH [ZNF649] | 3.14 ± 0.25 | 3.54 ± 0.16
33 | VTPFDHNIVNLLTTCSTPLLNSPP [AUP1] | 2.42 ± 0.12 | 2.48 ± 0.39
34 | VERYHNLCQKQVKAQLPRRESERR [FBXO28] | 4.08 ± 0.31 | 3.99 ± 0.08
35 | VTVTDVDIVFSKIKGKSCRTITFE [TPPP] | 2.23 ± 0.24 | 2.1 ± 0.28
36 | SVNTHDYAKVKEFIVDILQFLDIG [MATN2] | 2.23 ± 0.35 | 2.05 ± 0.32
37 | MSIMGNVLRFLPAFVRMKQLIEEG [GFOD1] | 2.31 ± 0.43 | 2.42 ± 0.28
38 | DSSTSPKGKQPTSAENSVAKKEDK [NANOGP8] | 5.57 ± 0.36 | 5.58 ± 0.19
39 | ILKRRYYRQHCTLELGSYIKDLSV [CTDNEP1] | 2.46 ± 0.56 | 2.25 ± 0.66
40 | SDSDSELSSSEGLEPGSADPLANG [PSD2] | 5.5 ± 0.35 | 5.59 ± 0.14
41 | VDIVTGHARLSDIWAKTPPITRKA [DHCR7] | 3.26 ± 0.093 | 3.38 ± 0.16
42 | FVVGNCLQIASDSHQYDRIYCGAG [PCMTD1] | 2.45 ± 0.38 | 2.62 ± 1
43 | RMTISLTVILIESTNEITYGLPIM [CLCN6] | 2.98 ± 0.3 | 3.06 ± 0.092
44 | EDTDPSTLSFNMSDKYPIQDTELP [EDARADD] | 5.11 ± 0.12 | 4.89 ± 0.089
